Data: FireProtDB (doi:10.1021/acs.biochem.7b00833)

Conditions: Bacillus subtilis (strain 168); pH 7; 25 °C; Urea; CD; Sodium Phosphate Buffer; whole UniProt chain shown

B1: SCO1 protein homolog wild type, P54178 (protein)
chain: MKVIKGLTAGLIFLFLCACGGQQIKDPLNYEVEPFTFQNQDGKNVSLESLKGEVWLADFIFTNCETICPPMTAHMTDLQKKLKAENIDVRIISFSVDPENDKPKQLKKFAANYPLSFDNWDFLTGYSQSEIEEFALKSFKAIVKKPEGEDQVIHQSSFYLVGPDGKVLKDYNGVENTPYDDIISDVKSASTLK
**Q.** With B1 as the protein, how does the denaturant m value read?
**A.** Its denaturant m value is 3.51 kcal/mol/M.

**Q.** And the “denaturant midpoint (higher = more stable)” value?
**A.** Its value is 2.91 M.

**Q.** And the unfolding free energy?
**A.** Its unfolding free energy is 9.93 kcal/mol.
